This note sets out measurements from patent publication US20250375530A1 (ALMAC DISCOVERY, published 2025).

For experiment [1], the target named is T1, human ROR1-Fc (CHO) (human).
T1 construct: also called hROR1-Fc; huROR1-Fc
Description: ELISA, plate coated with human ROR1-hFc, HisMyc-tagged VNAR at a single 5 ug/mL, Abs 450 nm; no blank bar shown. A general note: ELISA stands for enzyme-linked immunosorbent assay.

The target in another experiment is T2, mouse ROR1-Fc (CHO) (mouse).
T2 construct: also called mROR1-hFc; mROR1
T2 sequence (chain, as listed by the source limits assumed): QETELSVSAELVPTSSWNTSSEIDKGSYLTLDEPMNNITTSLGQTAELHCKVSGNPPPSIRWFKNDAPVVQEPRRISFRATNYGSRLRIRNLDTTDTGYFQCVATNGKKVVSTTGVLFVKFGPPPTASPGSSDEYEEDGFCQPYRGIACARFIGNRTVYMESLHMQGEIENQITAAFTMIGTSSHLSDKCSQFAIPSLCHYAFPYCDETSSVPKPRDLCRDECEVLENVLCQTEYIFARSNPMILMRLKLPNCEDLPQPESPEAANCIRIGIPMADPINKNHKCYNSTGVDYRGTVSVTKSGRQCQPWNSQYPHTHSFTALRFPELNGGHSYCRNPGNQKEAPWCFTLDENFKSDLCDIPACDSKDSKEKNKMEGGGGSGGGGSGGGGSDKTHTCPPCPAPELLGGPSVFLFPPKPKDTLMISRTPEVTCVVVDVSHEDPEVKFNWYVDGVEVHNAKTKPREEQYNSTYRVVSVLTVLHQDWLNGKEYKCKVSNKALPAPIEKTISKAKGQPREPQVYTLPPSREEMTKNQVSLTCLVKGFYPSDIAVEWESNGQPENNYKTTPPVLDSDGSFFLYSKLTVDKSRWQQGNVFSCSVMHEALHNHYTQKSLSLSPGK
Put plainly: ELISA, mROR1-hFc coated.

The target in experiment [2] is T1, human ROR1-Fc (CHO). Put plainly: ELISA dose response, plate coated with hROR1-Fc, HisMyc-tagged VNAR 0-5 ug/mL (linear axis), Abs 450 nm.
For experiment [3], the target named is T1, human ROR1-Fc (CHO). Put plainly: BLI, hROR1; MMAE conjugate. In general terms: Biolayer interferometry detects binding as a change in optical thickness at a sensor tip.

T1 sequence (chain, as listed by the source limits assumed): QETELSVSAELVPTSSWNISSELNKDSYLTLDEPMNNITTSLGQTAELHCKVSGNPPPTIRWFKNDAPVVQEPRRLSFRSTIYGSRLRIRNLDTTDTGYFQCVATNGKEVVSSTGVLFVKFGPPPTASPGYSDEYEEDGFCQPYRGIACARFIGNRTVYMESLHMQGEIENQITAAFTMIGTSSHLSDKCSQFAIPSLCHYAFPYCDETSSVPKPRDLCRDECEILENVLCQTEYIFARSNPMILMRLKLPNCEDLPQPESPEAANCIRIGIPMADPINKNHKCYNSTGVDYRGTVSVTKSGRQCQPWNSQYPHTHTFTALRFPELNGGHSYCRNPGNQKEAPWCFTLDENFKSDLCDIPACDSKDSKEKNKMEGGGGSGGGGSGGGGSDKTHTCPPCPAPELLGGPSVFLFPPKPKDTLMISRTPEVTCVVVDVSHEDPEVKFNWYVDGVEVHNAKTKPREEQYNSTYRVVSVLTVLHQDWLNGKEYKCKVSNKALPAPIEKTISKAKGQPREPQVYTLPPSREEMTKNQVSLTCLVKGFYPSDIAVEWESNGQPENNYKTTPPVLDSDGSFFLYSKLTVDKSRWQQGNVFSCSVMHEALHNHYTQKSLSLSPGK

B1: P3A1 G1 AE3.S (VNAR)
VNAR: TRVDQSPSSLSASVGDRVTITCVLTGTRYGLYSSTYWYRKNPGSSDEERISISGRYSESVNKGTKSFTLTISSLQPEDSATYYCRAREARHPWLRQWYDGAGTKVEIKQ
notes: VNAR; entry includes the HisMyc tag
Take B1: the binding result with human ROR1-Fc (CHO) [1] and with mouse ROR1-Fc (CHO) was “binds” throughout.

B2: P3A1 G1 NAC6.S (VNAR)
VNAR: TRVDQSPSSLSASVGDRVTITCVLTDTRYALYSSTYWYRKNPGSTDEERISIGGRYSESVNKGSKSFTLTISSLQPEDSATYYCRAREARHPWLRQWYDGAGTKVEIKQ
notes: as for B1
B2: the binding result in the experiment with human ROR1-Fc (CHO) [1] and with mouse ROR1-Fc (CHO) was “binds” each time.

B3: P3A1 G1 NAG8.S (VNAR)
VNAR: TRVDQSPSSLSASVGDRVTITCVLTGTKYGLYASTYWYRKNPGSPNKDRMIIGGRYSESVNNGTKSFTLTISSLQPEDSATYYCRAREARHPWLRQWYDGAGTKVEIKQ
notes: as for B1
On to B3, for which the binding result in the experiment with human ROR1-Fc (CHO) [2] is recorded as “binds”.

B4: P3A1 G1 AF7.S (VNAR)
VNAR: TRVDQSPSSLSASVGDRVTITCVLTGTKYGLYASTYWYRKNPGSTDKERIIIGGRYSESVNNRSKSFTLTISSLQPEDSATYYCRAREARHPWLRQWYDGAGTKVEIKQ
notes: as for B1
For the molecule B4, in the experiment with human ROR1-Fc (CHO) [2], the binding result is listed as “binds”.

B5: G3CP G4-P3A1G1AE3 MA-vc-PAB-MMAE conjugate (Cys linker) (VNAR, not shown: small tags and cut ends)
chain: TRVDQSPSSLSASVGDRVTITCVLTDANYGLAATYWYRKNPGSSNKERISISGRYSESVNKGTMSFTLTISSLQPEDSATYYCRAYPWGAGAPYNVQWYDGAGTKVEIKPGVQPCPGGGGGSTRVDQSPSSLSASVGDRVTITCVLTGTRYGLYSTYWYRKNPGSSDEERISISGRYSESVNKGTKSFTLTISSLQPEDSATYYCRAREARHPWLRQWYDGAGTKVEIK
modifications: MA-vc-PAB-MMAE on the single cysteine of the linker PGVQPCPGGGGGS
notes: DAR 1.0
Broadly, the Kd is a measure of binding affinity in units of concentration. A higher Kd goes with a looser complex. In the case of B5, the Kd with human ROR1-Fc (CHO) [3] turned out to be 0.76 nM.
